From article PMC3229514, “Both hMutSα and hMutSß DNA Mismatch Repair Complexes Participate in 5-Fluorouracil Cytotoxicity”

Tests used:
[1] = molecular target: hMutSα (human, UniProt P43246;P52701 1-934;1-1360); test: SPR (IAsys); 10 mM Mg2+; EMSA: 100 nM hMutSβ, 20 mM HEPES pH 7.6, 1 mM EDTA, 1 mM DTT, 10% glycerol, 100 µg poly(dI-dC), 10 µl; IAsys: 100 nM protein, 25 mM Tris-Cl pH 7.8, 20 mM NaCl; details: protein: recombinant; copies: 1;1; label: 5'-32P on S5 (EMSA); 5'-biotin on S5 (IAsys); blunt; 5FdU opposite A by the printed complement
[2] = molecular target: hMutSβ (hMSH2-hMSH3) (human, UniProt P43246;P20585 1-934;1-1137); test: as above; details: protein: recombinant, copies: 1;1, label: 5'-32P on S5 (EMSA), 5'-biotin on S5 (IAsys)

| Binder | binding signal [1] | binding signal ([2]; blunt, 5FdU opposite A by the printed complement) | binding signal ([2]; blunt ends, 2-nt AA loop in strand 1 (40 nt vs 38 nt)) |
| --- | --- | --- | --- |
| 5-FU-containing 38-mer duplex (dsDNA, 5-fluoro-2'-deoxyuridine at position 19 of strand 1 (written U)) DNA 1: TTTCTGACTTGGATACCAUCTATCTATCTATAAAATAT DNA 2: ATATTTTATAGATAGATAGATGGTATCCAAGTCAGAAA | ~2 fold vs hMutSβ on same DNA | ~1.3 fold vs complementary DNA | – |
| AA insertion/deletion loop duplex (dsDNA) DNA 1: TTTCTGACTTGGATACCATCTATCTATCTATAAAAAATAT DNA 2: ATATTTTATAGATAGATAGATGGTATCCAAGTCAGAAA | – | – | ~1.8 fold vs complementary DNA |
